{"source": "paper PMC9259988", "about": "“Heterologous Expression and Evaluation of Novel Plasmodium falciparum Transmission Blocking Vaccine Candidates” (Frontiers in Immunology, 2022)", "proteins": {"B1": {"name": "Pf3D7_1143700 fragment 1-100 expressed in Drosophila melanogaster S2 cells (TBC1^DM) (domain or fragment, Plasmodium falciparum 3D7, UniProt Q8IHS8 1-100, looked up)", "chain": "MKVKIGSFENFLERLNNIKEEDIIINDENTEEMFSSFLITFYKENEGRYTIQEQEYINNLLNILINKIRDNKNGRNFFSNLLCIHFKSITPYFINVKLKD", "notes": "Conserved Plasmodium protein, unknown function, PF3D7_1143700, Plasmodium falciparum 3D7 genome (PlasmoDB), residues 1-100; codon-optimised synthetic gene; secreted; the dimer is held by a disulphide bond"}}, "target": "the molecule itself", "assay": "non-reducing and reducing SDS-PAGE; purified protein run non-reduced and reduced (10 mM dithiothreitol) on a 4-20% Bis-Tris gel, Coomassie-type staining"}
{"protein": "B1", "values": [{"measurement": "stoichiometry N", "result": 2}]}
